{
  "source": "paper PMC7908025",
  "about": "(ACS Central Science, 2021)",
  "key": {"[1]": {"target": "porcine N-acyl-D-glucosamine 2-epimerase (AGE) (Sus scrofa, UniProt P17560)", "sequence (P17560 whole entry)": "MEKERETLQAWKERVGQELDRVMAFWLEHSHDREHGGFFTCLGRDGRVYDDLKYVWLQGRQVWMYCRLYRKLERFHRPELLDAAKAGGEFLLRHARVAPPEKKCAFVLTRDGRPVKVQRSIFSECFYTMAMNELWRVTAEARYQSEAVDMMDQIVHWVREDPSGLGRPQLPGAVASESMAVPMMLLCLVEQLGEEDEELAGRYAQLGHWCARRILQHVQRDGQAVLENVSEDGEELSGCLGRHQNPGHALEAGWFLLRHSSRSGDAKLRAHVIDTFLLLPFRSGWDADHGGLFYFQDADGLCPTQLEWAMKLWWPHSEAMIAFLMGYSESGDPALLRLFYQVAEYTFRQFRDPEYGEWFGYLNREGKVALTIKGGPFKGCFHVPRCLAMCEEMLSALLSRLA", "assay_type": "biochemical", "conditions": "35 °C, 48 h"}, "PmST1": {"target": "PmST1 (Pasteurella multocida, UniProt Q15KI8)", "assay_type": "biochemical"}, "[2]": {"tested_on": "CC(=O)N[C@H]1[C@H]([C@H](F)[C@H](O)CO)O[C@@](O[C@H]2[C@@H](O)[C@@H](CO)O[C@@H](Oc3ccc4c(C)cc(=O)oc4c3)[C@@H]2O)(C(=O)O)C[C@@H]1O", "experiment": "purified protein"}, "[3]": {"tested_on": "CC(=O)N[C@H]1[C@H]([C@H](O)[C@H](O)CO)O[C@](OP(=O)(O)OC[C@H]2O[C@@H](n3ccc(N)nc3=O)[C@H](O)[C@@H]2O)(C(=O)O)C[C@@H]1O", "experiment": "purified protein"}},
  "data": [
    {"compound": "CC(=O)N[C@H]1C(O)O[C@H](CO)[C@H](F)[C@@H]1O", "note": "(stereo partly drawn) [compound 2, 4-deoxy-4-fluoro-GalNAc]", "values": [
      {"measurement": "one-pot epimerase/aldolase conversion, 19F NMR", "setting": "[1]", "result": "the epimerase was converting the GalNAc starting material"}
    ]},
    {"compound": "CC(=O)N[C@H]1[C@H]([C@H](O)[C@H](O)CO)O[C@](OP(=O)(O)OC[C@H]2O[C@@H](n3ccc(N)nc3=O)[C@H](O)[C@@H]2O)(C(=O)O)C[C@@H]1O", "note": "[compound 9, CMP-7OHSA]", "values": [
      {"measurement": "Km", "setting": "PmST1", "result": 89, "unit": "µM"}
    ]},
    {"compound": "(Micromonospora viridifaciens)", "values": [
      {"measurement": "Km", "setting": "[2]", "result": "1.2 (±0.15) mM"},
      {"measurement": "kcat/Km", "setting": "[2]", "result": "2250 ± 1000", "unit": "M⁻¹ s⁻¹"}
    ]},
    {"compound": "(Photobacterium sp. JT-ISH-224)", "values": [
      {"measurement": "Km", "setting": "[3]", "result": "70 (±1) μM"},
      {"measurement": "kcat/Km", "setting": "[3]", "result": 656000, "unit": "M⁻¹ s⁻¹"}
    ]}
  ]
}
